In US20210388087A1 (Chugai, published 2021):

T1: Human CD3eg linker (human)
T1 construct: Single-chain construct; also called recombinant human CD3
T1 chain: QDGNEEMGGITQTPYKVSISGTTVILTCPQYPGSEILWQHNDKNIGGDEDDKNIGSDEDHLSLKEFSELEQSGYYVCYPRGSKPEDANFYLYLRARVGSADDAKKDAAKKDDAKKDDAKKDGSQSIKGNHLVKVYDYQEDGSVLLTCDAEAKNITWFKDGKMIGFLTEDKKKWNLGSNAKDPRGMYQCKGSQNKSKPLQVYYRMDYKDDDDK


Target: T1, Human CD3eg linker
Assay: SPR; fold vs parent H183/L072

Row | Binder | fold change of affinity
1 | H183/L072 VL E27aN (antibody, name in Kabat numbering, V domains shown) VH: QVQLVESGGGLVQPGRSLRLSCAASGFTFSNAWMHWVRQAPGKGLEWVAQIKDKGNAYAAYYAPSVKGRFTISRDDSKNSIYLQMNSLKTEDTAVYYCHYVHYASASTVLPAFGVDAWGQGTTVTVSS VL: DIVMTQSPLSLPVTPGEPASISCQASQNLVHMNRNTYLHWYQQKPGQAPRLLIYKVSNRFPGVPDRFSGSGSGTDFTLKISRVEAEDVGVYYCAQGTSVPFTFGQGTKLEIK | 1.1 fold
2 | H183/L072 VL E27aP (antibody, name in Kabat numbering, V domains shown) VH: QVQLVESGGGLVQPGRSLRLSCAASGFTFSNAWMHWVRQAPGKGLEWVAQIKDKGNAYAAYYAPSVKGRFTISRDDSKNSIYLQMNSLKTEDTAVYYCHYVHYASASTVLPAFGVDAWGQGTTVTVSS VL: DIVMTQSPLSLPVTPGEPASISCQASQPLVHMNRNTYLHWYQQKPGQAPRLLIYKVSNRFPGVPDRFSGSGSGTDFTLKISRVEAEDVGVYYCAQGTSVPFTFGQGTKLEIK | 1 fold
3 | H183/L072 VL E27aQ (antibody, name in Kabat numbering, V domains shown) VH: QVQLVESGGGLVQPGRSLRLSCAASGFTFSNAWMHWVRQAPGKGLEWVAQIKDKGNAYAAYYAPSVKGRFTISRDDSKNSIYLQMNSLKTEDTAVYYCHYVHYASASTVLPAFGVDAWGQGTTVTVSS VL: DIVMTQSPLSLPVTPGEPASISCQASQQLVHMNRNTYLHWYQQKPGQAPRLLIYKVSNRFPGVPDRFSGSGSGTDFTLKISRVEAEDVGVYYCAQGTSVPFTFGQGTKLEIK | 1.2 fold
4 | H183/L072 VL E27aR (antibody, name in Kabat numbering, V domains shown) VH: QVQLVESGGGLVQPGRSLRLSCAASGFTFSNAWMHWVRQAPGKGLEWVAQIKDKGNAYAAYYAPSVKGRFTISRDDSKNSIYLQMNSLKTEDTAVYYCHYVHYASASTVLPAFGVDAWGQGTTVTVSS VL: DIVMTQSPLSLPVTPGEPASISCQASQRLVHMNRNTYLHWYQQKPGQAPRLLIYKVSNRFPGVPDRFSGSGSGTDFTLKISRVEAEDVGVYYCAQGTSVPFTFGQGTKLEIK | 1.2 fold
5 | H183/L072 VL E27aS (antibody, name in Kabat numbering, V domains shown) VH: QVQLVESGGGLVQPGRSLRLSCAASGFTFSNAWMHWVRQAPGKGLEWVAQIKDKGNAYAAYYAPSVKGRFTISRDDSKNSIYLQMNSLKTEDTAVYYCHYVHYASASTVLPAFGVDAWGQGTTVTVSS VL: DIVMTQSPLSLPVTPGEPASISCQASQSLVHMNRNTYLHWYQQKPGQAPRLLIYKVSNRFPGVPDRFSGSGSGTDFTLKISRVEAEDVGVYYCAQGTSVPFTFGQGTKLEIK | 1.3 fold
6 | H183/L072 VL E27aT (antibody, name in Kabat numbering, V domains shown) VH: QVQLVESGGGLVQPGRSLRLSCAASGFTFSNAWMHWVRQAPGKGLEWVAQIKDKGNAYAAYYAPSVKGRFTISRDDSKNSIYLQMNSLKTEDTAVYYCHYVHYASASTVLPAFGVDAWGQGTTVTVSS VL: DIVMTQSPLSLPVTPGEPASISCQASQTLVHMNRNTYLHWYQQKPGQAPRLLIYKVSNRFPGVPDRFSGSGSGTDFTLKISRVEAEDVGVYYCAQGTSVPFTFGQGTKLEIK | 1.3 fold
7 | H183/L072 VL E27aV (antibody, name in Kabat numbering, V domains shown) VH: QVQLVESGGGLVQPGRSLRLSCAASGFTFSNAWMHWVRQAPGKGLEWVAQIKDKGNAYAAYYAPSVKGRFTISRDDSKNSIYLQMNSLKTEDTAVYYCHYVHYASASTVLPAFGVDAWGQGTTVTVSS VL: DIVMTQSPLSLPVTPGEPASISCQASQVLVHMNRNTYLHWYQQKPGQAPRLLIYKVSNRFPGVPDRFSGSGSGTDFTLKISRVEAEDVGVYYCAQGTSVPFTFGQGTKLEIK | 1 fold
8 | H183/L072 VL E27aW (antibody, name in Kabat numbering, V domains shown) VH: QVQLVESGGGLVQPGRSLRLSCAASGFTFSNAWMHWVRQAPGKGLEWVAQIKDKGNAYAAYYAPSVKGRFTISRDDSKNSIYLQMNSLKTEDTAVYYCHYVHYASASTVLPAFGVDAWGQGTTVTVSS VL: DIVMTQSPLSLPVTPGEPASISCQASQWLVHMNRNTYLHWYQQKPGQAPRLLIYKVSNRFPGVPDRFSGSGSGTDFTLKISRVEAEDVGVYYCAQGTSVPFTFGQGTKLEIK | 1.1 fold
